Test results: publication PMC4437517

Key:
Assay type in all cases: biochemical, Arabidopsis thaliana
[1] = substrate: O=[N+]([O-])c1ccc(OP(=O)(O)O)cc1; experiment: phosphatase assay, non-linear fit; conditions: pH 5.0, no metal, 37 °C
[2] = substrate: N[C@@H](Cc1ccc(OP(=O)(O)O)cc1)C(=O)O; experiment: Malachite Green phosphate release, non-linear fit; conditions: pH 5.0, no metal, 37 °C, substrate inhibition above 3.0 mM
[3] = substrate: Nc1ncnc2c1ncn2[C@@H]1O[C@H](COP(=O)(O)OP(=O)(O)OP(=O)(O)O)[C@@H](O)[C@H]1O; experiment: Malachite Green phosphate release, non-linear fit; conditions: pH 5.0, no metal, 37 °C

B1: At1g05000 (Arabidopsis thaliana; M1S) (protein)
chain: SKLVEKTTTTEQDNGEDFCRTIIEVSEVNRNVFQAPGGEADPFRVVSGEELHLIPPLNFSMVDNGIFRSGFPDSANFSFLQTLGLRSIIYLCPEPYPESNLQFLKSNGIRLFQFGIEGNKEPFVNIPDHKIRMALKVLLDEKNHPVLIHCKRGKHRTGCLVGCLRKLQKWCLTSIFDEYQRFAAAKARVSDQRFMEIFDVSSFSHIPMSFSCSIR
B1 showed a Km [1] of 670 ± 140 µM, a Vmax [1] of 0.64 µmol/min/mg and a kcat [1] of 0.26 ± 0.02 s⁻¹. The kcat/Km [1] was 392 M⁻¹ s⁻¹, the Km [2] was 880 ± 100 µM and the Vmax [2] was 0.19 µmol/min/mg. For the same protein, the kcat [2] was 0.077 ± 0.004 s⁻¹, the kcat/Km [2] was 87.5 M⁻¹ s⁻¹ and the Km [3] was 480 ± 50 µM. The Vmax [3] was 1.52 µmol/min/mg, the kcat [3] was 0.62 ± 0.02 s⁻¹ and the kcat/Km [3] was 1290 M⁻¹ s⁻¹.
